Laboratory results taken from patent US20180094075A1 (Pfizer, published 2018).

Tests used:
[1] = target: human PTK7 expressed on cells (cancer cell lines with endogenous PTK7; HEK293T-PTK7 over-expressing cells) (human) (UniProt Q13308); test: flow cytometry, H358 cells, 10 µg/ml Ab
[2] = target: human PTK7 expressed on cells (cancer cell lines with endogenous PTK7; HEK293T-PTK7 over-expressing cells) (human) (UniProt Q13308); test: flow cytometry, MDAMB468 cells, 10 µg/ml Ab
[3] = target: human PTK7 expressed on cells (cancer cell lines with endogenous PTK7; HEK293T-PTK7 over-expressing cells) (human) (UniProt Q13308); test: flow cytometry, NB4 cells, 10 µg/ml Ab
[4] = target: human PTK7 expressed on cells (cancer cell lines with endogenous PTK7; HEK293T-PTK7 over-expressing cells) (human) (UniProt Q13308); test: flow cytometry, HEL92.1 cells, 10 µg/ml Ab
[5] = target: human PTK7 expressed on cells (cancer cell lines with endogenous PTK7; HEK293T-PTK7 over-expressing cells) (human) (UniProt Q13308); test: flow cytometry, HCC70 cells, 10 µg/ml Ab
[6] = target: human PTK7 expressed on cells (cancer cell lines with endogenous PTK7; HEK293T-PTK7 over-expressing cells) (human) (UniProt Q13308); test: flow cytometry, BT-549 cells, 10 µg/ml Ab
[7] = target: human PTK7 expressed on cells (cancer cell lines with endogenous PTK7; HEK293T-PTK7 over-expressing cells) (human) (UniProt Q13308); test: flow cytometry, Hs578T cells, 10 µg/ml Ab
[8] = target: human PTK7 expressed on cells (cancer cell lines with endogenous PTK7; HEK293T-PTK7 over-expressing cells) (human) (UniProt Q13308); test: flow cytometry, HCC38 cells, 10 µg/ml Ab
[9] = target: human PTK7 expressed on cells (cancer cell lines with endogenous PTK7; HEK293T-PTK7 over-expressing cells) (human) (UniProt Q13308); test: flow cytometry, ASPC1 cells (negligible PTK7 expression by immunoblot), 10 µg/ml Ab
[10] = target: human PTK7 expressed on cells (cancer cell lines with endogenous PTK7; HEK293T-PTK7 over-expressing cells) (human) (UniProt Q13308); test: flow cytometry, DMS114 cells, 10 µg/ml Ab
[11] = target: human PTK7 expressed on cells (cancer cell lines with endogenous PTK7; HEK293T-PTK7 over-expressing cells) (human) (UniProt Q13308); test: flow cytometry, H1048 cells, 10 µg/ml Ab
[12] = target: human PTK7 expressed on cells (cancer cell lines with endogenous PTK7; HEK293T-PTK7 over-expressing cells) (human) (UniProt Q13308); test: flow cytometry, HCC1937 cells, 10 µg/ml Ab
[13] = target: human PTK7 expressed on cells (cancer cell lines with endogenous PTK7; HEK293T-PTK7 over-expressing cells) (human) (UniProt Q13308); test: flow cytometry, KG1 cells, 10 µg/ml Ab
[14] = target: human PTK7 expressed on cells (cancer cell lines with endogenous PTK7; HEK293T-PTK7 over-expressing cells) (human) (UniProt Q13308); test: flow cytometry, H69 cells, 10 µg/ml Ab
[15] = target: human PTK7 expressed on cells (cancer cell lines with endogenous PTK7; HEK293T-PTK7 over-expressing cells) (human) (UniProt Q13308); test: flow cytometry, Hs700T cells, 10 µg/ml Ab
[16] = target: human PTK7 expressed on cells (cancer cell lines with endogenous PTK7; HEK293T-PTK7 over-expressing cells) (human) (UniProt Q13308); test: flow cytometry, TF1a cells, 10 µg/ml Ab
[17] = target: human PTK7 expressed on cells (cancer cell lines with endogenous PTK7; HEK293T-PTK7 over-expressing cells) (human) (UniProt Q13308); test: flow cytometry, DMS79 cells, 10 µg/ml Ab
[18] = target: human PTK7 expressed on cells (cancer cell lines with endogenous PTK7; HEK293T-PTK7 over-expressing cells) (human) (UniProt Q13308); test: flow cytometry, H526 cells, 10 µg/ml Ab
[19] = target: human PTK7 expressed on cells (cancer cell lines with endogenous PTK7; HEK293T-PTK7 over-expressing cells) (human) (UniProt Q13308); test: flow cytometry, H522 cells, 10 µg/ml Ab
[20] = target: human PTK7 expressed on cells (cancer cell lines with endogenous PTK7; HEK293T-PTK7 over-expressing cells) (human) (UniProt Q13308); test: flow cytometry, RL cells, 10 µg/ml Ab

Sequence of human PTK7 expressed on cells (cancer cell lines with endogenous PTK7; HEK293T-PTK7 over-expressing cells) (human) (Q13308 31-1070 L93P limits assumed): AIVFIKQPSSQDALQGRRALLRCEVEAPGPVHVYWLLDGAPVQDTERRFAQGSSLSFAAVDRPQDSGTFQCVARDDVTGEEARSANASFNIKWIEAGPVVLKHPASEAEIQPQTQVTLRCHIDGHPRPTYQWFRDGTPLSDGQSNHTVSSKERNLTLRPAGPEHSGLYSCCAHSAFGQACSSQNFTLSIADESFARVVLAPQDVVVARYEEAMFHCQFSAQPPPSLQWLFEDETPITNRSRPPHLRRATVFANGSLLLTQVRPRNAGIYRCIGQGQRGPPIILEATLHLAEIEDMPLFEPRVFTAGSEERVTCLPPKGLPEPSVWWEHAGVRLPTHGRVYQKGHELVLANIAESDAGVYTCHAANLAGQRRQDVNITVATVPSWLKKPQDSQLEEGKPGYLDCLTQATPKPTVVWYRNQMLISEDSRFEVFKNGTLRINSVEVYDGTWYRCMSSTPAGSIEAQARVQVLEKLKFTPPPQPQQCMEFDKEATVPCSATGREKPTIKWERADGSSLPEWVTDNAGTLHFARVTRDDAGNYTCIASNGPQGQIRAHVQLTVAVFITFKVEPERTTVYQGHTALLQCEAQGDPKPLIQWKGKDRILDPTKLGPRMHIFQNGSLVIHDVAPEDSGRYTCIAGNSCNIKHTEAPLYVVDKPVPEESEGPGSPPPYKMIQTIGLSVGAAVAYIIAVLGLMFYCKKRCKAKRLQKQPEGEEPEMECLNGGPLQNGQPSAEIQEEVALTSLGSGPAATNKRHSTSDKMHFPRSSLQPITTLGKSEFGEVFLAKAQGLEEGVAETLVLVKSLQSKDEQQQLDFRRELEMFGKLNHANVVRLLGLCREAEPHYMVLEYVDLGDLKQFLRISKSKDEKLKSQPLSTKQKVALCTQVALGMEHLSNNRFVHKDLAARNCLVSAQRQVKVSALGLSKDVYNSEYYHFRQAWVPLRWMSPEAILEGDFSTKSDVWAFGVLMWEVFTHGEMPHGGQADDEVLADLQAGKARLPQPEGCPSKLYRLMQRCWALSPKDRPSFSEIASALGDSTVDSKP

Mean Fluorescent Intensity [1]: 4.5
Mean Fluorescent Intensity [2]: 12
Mean Fluorescent Intensity [3]: 6.8
Mean Fluorescent Intensity [4]: 7.7
Mean Fluorescent Intensity [6]: 3.6
Mean Fluorescent Intensity [7]: 2.7
Mean Fluorescent Intensity [8]: 7.2
Mean Fluorescent Intensity [9]: 2.6
Mean Fluorescent Intensity [10]: 9.9
Mean Fluorescent Intensity [11]: 4.4
Mean Fluorescent Intensity [12]: 7.8
Mean Fluorescent Intensity [13]: 5.2
Mean Fluorescent Intensity [14]: 11.2
Mean Fluorescent Intensity [15]: 4.9
Mean Fluorescent Intensity [16]: 6.2
Mean Fluorescent Intensity [17]: 8.5
Mean Fluorescent Intensity [18]: 12.2
Mean Fluorescent Intensity [19]: 3.8
Mean Fluorescent Intensity [20]: 29.8
Substance: Negative Control Ab (Table 8) (antibody)
Mean Fluorescent Intensity [5]: 9.4
